Kd and EC50 data for one molecule are collected here from article doi:10.1101/2021.02.02.429416.

Assay [1] concerns the target KP-VR2 (human). Nature of the assay: BLI.
The next assay has as its target Aflibercept. Nature of the assay: ELISA. Background: In an ELISA, binding on a coated surface is turned into a signal by an enzyme label.
Assay [2] deals with KP-VR2 (human). Nature of the assay: ELISA.

B1: Human PlGF-1 (ligand)
chain: LPAVPPQQWALSAGNGSSEVEVVPFQEVWGRSYCRALERLVDVVSEYPSEVEHMFSPSCVSLLRCTGCCGDENLHCVPVETANVTMQLLKIRSGDRPSYVELTFSQHVRCECRPLREKMKPERCGDAVPRR
In the case of B1, the Kd (in general, the free concentration of one partner at which half of the binding sites on the other are occupied at equilibrium, for simple one-to-one binding) with KP-VR2 (human) [1] amounted to 0.78 nM. Further, the EC50 (commonly the concentration at which the effect is half-maximal) in the assay with Aflibercept worked out at 30.5 nM; in the assay with KP-VR2 (human) [2], 2.39 nM.
